Measurements from US20250296984A1, “THERAPEUTIC AND DIAGNOSTIC AGENTS AND USES THEREOF” (priority 2022, published 2025).

Legend:
pancreatic tissue = assay: IHC on pancreatic tissues; set-up: species or system human
Description: FIG. 20. Some pancreatic tissues were studied to exclude general off-target binding of the 28-13-5G6-1D3 to this tissue type. […] The HCMV ISH is negative indicating absence of viral HCMV DNA in the normal pancreatic tissue sample. […] Thus, the same sample is positive for both HCMV proteins US28 and IE and HCMV DNA but negative for the negative control IgG indicating specific antibody binding. The US28 protein staining is cytoplasmic as expected, the IE protein is mostly located in the cell nucleus as expected since it is a nuclear protein. […] A colour version of FIG. 20 is also provided.

[1] = biological target: T1, human proteins on HuProt Human Proteome Microarray (Homo sapiens, UniProt Q14847); assay: HuProt Human Proteome Microarray, off-target human proteins; format: binding; set-up: key to Z Score: Z = (F635 − mean F635 of all spots) / SD; average of duplicate spots; conditions: Protein: LASP1
T1 construct: purchased CDI Labs (HuProt); host or cells: yeast S. cerevisiae
T1 sequence (Q14847 1-261): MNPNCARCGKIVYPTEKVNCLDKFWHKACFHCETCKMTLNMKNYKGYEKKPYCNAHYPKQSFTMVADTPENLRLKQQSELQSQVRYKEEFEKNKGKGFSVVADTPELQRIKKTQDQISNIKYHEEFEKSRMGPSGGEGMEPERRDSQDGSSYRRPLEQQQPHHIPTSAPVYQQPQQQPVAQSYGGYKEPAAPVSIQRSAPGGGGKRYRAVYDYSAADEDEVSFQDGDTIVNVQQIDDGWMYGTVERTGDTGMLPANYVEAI
Description: The HuProt™ Human Proteome Microarray provides the largest number of unique, full-length, individually purified human proteins on a single microscope slide. It provides >21,000 unique human proteins, isoform variants, and protein fragments—covering 16,794 unique genes. This includes 15,889 of the 19,613 canonical human proteins described in the Human Protein Atlas, with broad coverage across protein subclasses. This allows thousands of interactions to be profiled in a high-throughput manner. The full-length recombinant proteins are expressed in the yeast S. cerevisiae, purified, and printed on glass slides in duplicate along with a set of control proteins (GST, BSA, histones, IgG, etc.). The full list of the different proteins included in the HuProt™ Human Proteome Microarray as used in this Example is provided as “List B” in the Research Disclosures publication (ISSN 0374-4353, Questel Ireland Ltd) with database numbers 707018, 707019 and 707020, each entitled “Large scale protein arrange target protein identities” and each digitally published on 27 Jan. 2023, the contents of each of which are incorporated herein by reference in their entirety, fo the purposes of the disclosure of the proteins defined by “List B”. “List B” begins in Research Disclosures publication 707018, is continued in Research Disclosures publication 707019, and concludes Research Disclosures publications 707020, and so the three publications are to be read consecutively as a single disclosure of the “List B” proteins. The HuProt™ microarray is not restricted to a particular type of surface coating, although the default is glass coated with ultrathin nitrocellulose film for the non-covalent, yet irreversible, capture of active proteins to the surface.
Samples of humanised 7B1F3 and mouse 7B1F3 antibodies were analysed for binding specificities on HuProt™ human proteome arrays. A peptide with the sequence TDVLNQSKPVTL (“Peptide 3”) was added to the arrays at 0.1 mg/ml as a control.
After blocking, the arrays were probed with the antibody samples (0.1 μg/ml) at room temperature for 1 hour. Then the arrays were washed with TBST for 10 min×3 and probed with Alexa647-anti-human IgG Fc or Alexa647-anti-mouse IgG secondary antibodies under conditions optimized by CDI Labs for signal detection.
• Non-specific hits that directly bind to the secondary antibodies were eliminated from the analysis of the samples. • CDI software was used to quantify the specificity of each individual sample to specific proteins on the array based on Z Scores. • Z score is the average Z score of the duplicate spots of a given protein (each protein is printed in duplicate on a HuProt™ array). The Z score of each spot on a given array is calculated according to the algorithm below:
Z=[F635−F635(avg)]/F635(std) • F635(avg) and F635(std) are the average and standard deviation of the F635 values of all spots on the array, respectively. • S score is the difference of the Z Scores of a given protein and the one ranked next to it. If the S score of the top hit is >3, the antibody is considered to be highly specific for the top hit. • F635 is the average foreground signal intensity of 2 replicate spots of a given protein in the detection channel (635 nm). • B635 is the average background signal intensity of 2 replicate spots of a given protein in the detection channel (635 nm).

[2] = tested on: US28 negative CHO control cells; assay: Flow cytometry off-target binding to US28 negative control CHO cells; set-up: species or system Chinese Hamster; conditions: 1:10 dilution (w/v), after removing binding to blank and secondary Ab controls
Description: FIG. 4. The positive surface binding of the clone US28-13-5G6-1D3 on CHO-US28-A1 cells was compared with the US28 negative CHO control cells. The clone US28-13-5G6-1D3 Ab bound 15-fold more to the surface of the US28 positive CHO-US28-A1 cells than to the US28 negative CHO cells in 1:50 (w/v).
FIG. 7. Surface binding of 13-5G6-1D3 rAb on CHO-US28-A1 cells, and on respective control CHO cells were validated by using FACS analysis. The bars showing results for CHO cells are colored with dark grey whereas the bars showing results for CHO-US28-A1 cells are colored with pale grey color. […] The surface binding of the 13-5G6-1D3 rAb to CHO cells was only measured in 1:10 dilution (w/v) and was 0.77% after removing the binding to blank and anti-mouse IgG-Alexa 488 secondary Ab controls.
FIG. 22. Percentage off-target binding of various ECD3-binding molecules of the invention (A) or various SEQ ID NO: 177-binding molecules of the invention (B), in comparison with VUN100, as assessed by binding to control CHO cells.
In a further embodiment, it is preferred that a binding molecule of the present invention binds preferentially to US28-expressing cells (such as CHO cells engineered to express US28) compared to its binding of US28-negative cells (such as wildtype CHO cells), for example, at a 1:50 (w/v) dilution, for example as determined by flow cytometry assay. […]

B1: 13-5G6-1D3: mouse monoclonal IgG1 kappa antibody against US28 ECD3; VH SEQ ID NO: 12, VL SEQ ID NO: 18 (antibody, V domains shown)
VH: EVKLVESGGGLVQPGGSLRLACATSGFTFTDYYMSWVRQPPGKALEWLGFIRSKANGYTTEYSASVKGRFTISRDNSQSILYLQMNTLRSEDSATYYCARDERRTAWLAYWGQGTLVTVSA
VL: DVLMTQTPLSLPVSLGDQASISCRSSQSIVHSNGNTYLDWYLQKPGQSPKLLIYKVSNRFSGVPDRFSGSGSGTDFTLKISRVEAEDLGVYYCFQGSHVPTWTFGGGTKLEIK
modifications: Mature form of VH sequence of 1D3, without the leader sequence; Mature form of VL sequence of 1D3, without the leader sequence
Pancreatic tissue; HCMV ISH negative sample
  IHC staining of normal pancreatic tissue: negative staining
Pancreatic tissue; HCMV ISH positive sample
  IHC staining of pancreatic tissue sample from another patient: positive

B2: 7B1F3: mouse IgG1 kappa antibody against US28 ECD1 Peptide-N; VH SEQ ID NO: 211, VL SEQ ID NO: 213 (antibody, V domains shown)
VH: EVQLQQSGAELAKPGASVKMSCKASGYTFTNYWMHWVKQRPGQGLEWIGYVNPRTGYTEYNQKFKDKATLTADKSSRTAYMQLSSLTSEDSAVYSCARILNGTGFAYWGQGTLVTVSA
VL: DIVLTQSPSSLTVSVGEKFTMSCKSSQSLLYSSNQKNYLAWYQQKPGQSPKLLIYWASTRESGVPDRFTGSGSGTDFTLAISSVKPEDLAIYYCQQYYSFPLTFGAGTKLEIK
modifications: Mature form of VH sequence of 7B1F3, without the leader sequence; Mature form of VL sequence of 7B1F3, without the leader sequence
[1]
  F635: 3681
  Z Score: 10.575

B3: 13-5G6-1D3 rAb: recombinant antibody product of US28-13-5G6-1D3 produced in HEK293-F cells (antibody)
heavy: EVKLVESGGGLVQPGGSLRLACATSGFTFTDYYMSWVRQPPGKALEWLGFIRSKANGYTTEYSASVKGRFTISRDNSQSILYLQMNTLRSEDSATYYCARDERRTAWLAYWGQGTLVTVSAAKTTPPSVYPLAPGSAAQTNSMVTLGCLVKGYFPEPVTVTWNSGSLSSGVHTFPAVLQSDLYTLSSSVTVPSSTWPSETVTCNVAHPASSTKVDKKIVPRDCGCKPCICTVPEVSSVFIFPPKPKDVLTITLTPKVTCVVVDISKDDPEVQFSWFVDDVEVHTAQTQPREEQFNSTFRSVSELPIMHQDWLNGKEFKCRVNSAAFPAPIEKTISKTKGRPKAPQVYTIPPPKEQMAKDKVSLTCMITDFFPEDITVEWQWNGQPAENYKNTQPIMDTDGSYFIYSKLNVQKSNWEAGNTFTCSVLHEGLHNHHTEKSLSHSPGK
light: DVLMTQTPLSLPVSLGDQASISCRSSQSIVHSNGNTYLDWYLQKPGQSPKLLIYKVSNRFSGVPDRFSGSGSGTDFTLKISRVEAEDLGVYYCFQGSHVPTWTFGGGTKLEIKRADAAPTVSIFPPSSEQLTSGGASVVCFLNNFYPKDINVKWKIDGSERQNGVLNSWTDQDSKDSTYSMSSTLTLTKDEYERHNSYTCEATHKTSTSPIVKSFNRNEC
[2]
  surface binding to CHO cells, percent of cells: 0.77%
